“Also recorded” adds a separate entry of the source. Read-outs that look alike come from different tables or passages of the source. Numbered stars: 1 amine (or outer) side, 2 acyl side, 3 side chain; on linkers, the order of the positions; unused ones are H or OH. Bridge positions count the residues as written; N and C are the ends. Ends that are not written are not given here. mXylylene = c1cc(C[*:1])cc(C[*:2])c1
Experiments:
[1] = molecular target: T1, cJun bZIP/TRE DNA interaction (transcriptional block of TRE-mDHFR) (Homo sapiens, UniProt P05412, S292Y); experiment: Transcription Block Survival (TBS) assay: colony counting and growth competition in E. coli; type: cell-based; details: vs transcriptionally blocked cells (TRE-mDHFR + cJun bZIP)
T1 construct: expressed in transfected cells; host or cells: E. coli BL21 Gold carrying pES300d-TRE-mDHFR and pES230d-cJun bZIP
From the text: Library Construction and TBS Assay: Library inserts were produced using PCR fill-in reactions from synthesised primers (Sigma) with degenerate codons at the desired positions to produce the correct residue options. The library was subcloned using SacI and AscI sites into the pET24a plasmid containing A-FosW. The primers used were cJun-Hinge-Lib-F: 5′-[…] TATGCC-3′ (SEQ ID NO: 49) and cJun-Hinge-Lib_R: 5′-[…] GTTC-3′ (SEQ ID NO: 50). The library DNA was transformed into NEB 10-beta electrocompetent E. coli cells. The following equation was utilised to determine library coverage by the number of single colonies: E=100×(1−1/n)^m where E is the percentage of the library missing, m is the number of colonies collected and n is the library size. […] Library DNA quality was assessed by sequencing both the DNA pool and a number of single colonies to show degenerate codons in the correct positions in the pool and to show a diversity of library members from single colonies. The pool of library DNA was transformed into BL21 Gold cells already containing pES300d-TRE-mDHFR and pES230d-cJun bZIP.
Selective pressure is applied by growing the bacteria in M9 minimal media with TMP (2-4 μM) alongside ampicillin, kanamycin and chloramphenicol to maintain the required plasmids, and IPTG (1 mM) to induce protein expression. The library transformants were first plated out onto selective agar plates (2 μM TMP) and grown at 37° C. for 72-96 h. Optimisation experiments (FIG. 5) indicate that 4 μM TMP is optimum for selection however a lower stringency is used initially before selection is increased in later steps. Colonies from this first round of selection were pooled and serially grown in liquid culture at starting OD600 of 0.05 and grown at 37° C. with shaking at 200 rpm until the OD600 reached 0.6. TMP concentration was 2 μM in the first liquid culture passage before it was increased to the optimum 4 μM in subsequent passages. […] At each passage step, a sample of the culture was plated on LB agar (supplemented with antibiotics to maintain plasmids) to select and sequence individual colonies, and a DNA pool was also sequenced. This allows the occurrence of library members to be monitored as winner sequences are selected for. Assay Validation experiments utilised a modified assay methodology whereby overnight cultures from glycerol stocks of the Control Strains (Table 2) were diluted to OD600=0.5 and 50 μL was plated on a selective M9 minimal medium agar plate.
Transcription block survival (TBS) is an intracellular assay that utilises cell survival as a readout. […] This enzyme is absolutely essential for survival since it is required for the production of purines needed for DNA and amino acid synthesis. […]. We produced a mDHFR gene (FIGS. 2 and 3) by rational design to introduce 15 TRE sites into the coding DNA sequence to allow a robust cJun transcriptional block whilst minimising alteration to the expressed protein (TRE-mDHFR). In particular, the resulting TRE-mDHFR construct was produced via two silent and thirteen conservative mutations. […] The accessible surface areas of all other amino acid residues were calculated using the ‘Accessible Surface Area and Accessibility Calculation for Protein’ tool (http://cib.cf.ocha.ac.jp/bitool/ASA/). […]

[2] = molecular target: c-Jun bZIP (expressed in E. coli) (Homo sapiens) (UniProt P05412); experiment: cell_activity; details: TBS assay
[3] = molecular target: cJun bZIP (Homo sapiens, UniProt P05412, S292Y); experiment: CD spectra and thermal denaturation of peptide/cJun heterodimers; details: for Tm (° C.) (CD): heterodimer with cJun bZIP, Example 1
Experimental: (§1) Circular Dichroism (CD): An Applied Photophysics Chirascan was used for CD measurements, with a 200 μL sample in a 1 mm path length CD cell. Protein/DNA samples were suspended in 150 mM potassium phosphate, 150 mM potassium fluoride and 5 mM TCEP at pH 7.4 and were equilibrated for 30 minutes before measurement. […] These scans were averaged and converted to molar residue ellipticities (MRE). Thermal denaturation experiments were performed by measuring the ellipticity at 222 nm over a 1 to 90° C. gradient at 1° C. increments. Post-melt scans at 20° C. confirmed the transitions were reversible as they overlaid within 10% of the pre-melt scan.
(§2) Circular Dichroism (CD): An Applied Photophysics Chirascan was used for CD measurements, with a 200 μL sample in a 1 mm path length CD cell. Protein/DNA samples were suspended in 150 mM potassium phosphate, 150 mM potassium fluoride and 5 mM TCEP at pH 7.4 and were equilibrated for 30minutes before measurement. […] Thermal denaturation experiments were performed by measuring the ellipticity at 222 nm over a 1 to 90° C. gradient at 1° C. increments. Post-melt scans at 20° C. confirmed the transitions were reversible as they overlaid within 10% of the pre-melt scan.
(§3) Peptide helicity was determined by quantifying the CD signal at 222 nm of peptide only samples. Thermal denaturation experiments were then used to determine the Tm of peptide-c-Jun heterodimers, which was used as an approximate measure of target engagement. […] The same 60 amino acid c-Jun bZIP construct was used for all experiments, regardless of antagonist peptide length.

[4] = molecular target: cJun (Homo sapiens, UniProt P05412, S292Y); experiment: CD dimer exchange experiments; details: A-FosW mixed with preformed HingeW/cJun heterodimer
Experimental: Circular Dichroism (CD): An Applied Photophysics Chirascan was used for CD measurements, with a 200 μL sample in a 1 mm path length CD cell. Protein/DNA samples were suspended in 150 mM potassium phosphate, 150 mM potassium fluoride and 5 mM TCEP at pH 7.4 and were equilibrated for 30 minutes before measurement. […] These scans were averaged and converted to molar residue ellipticities (MRE). Thermal denaturation experiments were performed by measuring the ellipticity at 222 nm over a 1 to 90° C. gradient at 1° C. increments.

[5] = system: TRE DNA; experiment: CD control: peptide with TRE DNA; type: binding
Experimental: Circular Dichroism (CD): An Applied Photophysics Chirascan was used for CD measurements, with a 200 μL sample in a 1 mm path length CD cell. Protein/DNA samples were suspended in 150 mM potassium phosphate, 150 mM potassium fluoride and 5 mM TCEP at pH 7.4 and were equilibrated for 30 minutes before measurement. […] These scans were averaged and converted to molar residue ellipticities (MRE).

[6] = molecular target: T2, cJun bZIP (human, UniProt P05412 252-308, limits assumed); experiment: ITC, antagonist injected into cJun, one site model
T2 construct: Purified from a His-SUMO fusion with the tag cleaved off; also called c-Jun bZIP domain; 60 amino acid c-Jun bZIP construct
T2 chain: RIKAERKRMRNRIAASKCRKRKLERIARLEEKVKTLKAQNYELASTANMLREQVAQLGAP

[7] = molecular target: T2, cJun bZIP
[8] = CD spectra and thermal denaturation of peptide-only samples (helicity, homodimer Tm)
Experimental: as §1, §2, §3

[9] = not given; remark: listed apart in the source
[10] = molecular target: T2, cJun bZIP; experiment: CD spectra at 20 °C
[11] = molecular target: T2, cJun bZIP; experiment: cell-based or functional assay
[12] = molecular target: T3, HingeW (synthetic construct); experiment: CD, DNA spectrum unchanged; details: tags: C-terminal 6xHis
T3 chain: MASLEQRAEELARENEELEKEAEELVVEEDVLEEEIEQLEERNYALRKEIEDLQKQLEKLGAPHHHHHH

[13] = molecular target: T4, A-FosW (synthetic construct); experiment: CD, DNA spectrum unchanged; details: tags: C-terminal 6xHis
T4 chain: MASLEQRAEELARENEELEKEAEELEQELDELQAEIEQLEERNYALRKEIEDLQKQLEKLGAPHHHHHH

[14] = molecular target: T2, cJun bZIP; experiment: cell-based or functional assay
[15] = molecular target: T2, cJun bZIP

Molecule: MASTDTLQAETDQLEDEKYALQTEIANLLKEKEKLGAPHHHHHH [cFos LZ, human cFos leucine zipper domain construct]
- effect on TRE-mDHFR transcriptional block / colony numbers [1]: no significant increase in colony numbers; also recorded: unable to effectively dissociate the cJun bZIP from TRE DNA

Molecule: TRE-mDHFR gene (15 TRE sites)
- activity (fold reduction in colony count) ([2]; 4 uM TMP, 1 mM IPTG): 21

Molecule: MASLDELQAEIEQLEERNYALRKEIEDLQKQLEKLGAPHHHHHH [FosW]
- Tm (° C.) (CD) [3]: 54 °C
- effect on TRE-mDHFR transcriptional block / colony numbers [1]: no significant increase in colony numbers; also recorded: unable to effectively dissociate the cJun bZIP from TRE DNA

Molecule: WT-mDHFR gene
- activity (fold reduction in colony count) ([2]; presumed nonspecific plasmid binding): 1.3

B1: cJun bZIP (protein)
chain: RIKAERKRMRNRIAASKCRKRKLERIARLEEKVKTLKAQNYELASTANMLREQVAQLGAP
- Tm (° C.) (CD): 39.8 ° C.

B2: A-FosW (peptide)
peptide: MASLEQRAEELARENEELEKEAEELEQELDELQAEIEQLEERNYALRKEIEDLQKQLEKLGAPHHHHHH
notes: Recombinant, capped and C-terminally 6xHis-tagged; also called rationally designed A-FosW template; parent peptide
- Fraction helicity at 20° C. (CD) ([3]; heterodimer with c-Jun, equimolar, 10 μM total): 38.7%
- temperature of smaller initial transition (double transition) ([3]; heterodimer with cJun): ~30 °C
- Tm (° C.) (CD) [3]: 69.9 °C
- ΔTm from component average (CD) ([3]; heterodimer with cJun vs average of component profiles): 27.5 °C
- dimer exchange [4]: no dimer exchange had occurred
- interaction with TRE DNA [5]: no interaction
- Kd [6]: 0.0883 µM
- TΔS (ITC) [6]: -26.9 kcal/mol
- ΔG (ITC) [6]: -9.56 kcal/mol
- ΔH (ITC) [6]: -36.5 kcal/mol
- Tm (° C.) (CD) [7]: 69.9 ° C.
- ΔTm from component average (CD) [7]: 27.5 ° C.
- Fraction helicity at 20° C. (CD) ([8]; peptide alone): 40.1%
- Tm (° C.) (CD) ([8]; peptide alone (homodimer)): 45.1 °C
- Tm (° C.) (CD) [9]: 45.1 ° C.
- effect on TRE-mDHFR transcriptional block / colony numbers [1]: restore cell survival
- increase in α-helicity relative to the average of the two component spectra [10]: 39%
- IC50, CD antagonism of cJun/TRE DNA (peak at ~281 nM) [11]: 16 µM
- IC50, EMSA of free TRE DNA band [11]: 12.1 µM
- TBS assay colony numbers relative to TRE-mDHFR only [11]: 60%

B3: TRE duplex (dsDNA)
DNA 1: GTCAGTCAGTGACTCAATCGGTCA
DNA 2: TGACCGATTGAGTCACTGACTGAC
- binding result [12]: no binding
- binding result [13]: no binding

Molecule: EAEELVVEEDVLEEEIEQLEERNYALRAEICNLSCQ-NH2 (not fully specified; cysteine pairing not given here) [HingeW variant meta DBMBW, linear]
- IC50 (µM), CD [14]: 91.1 µM

Molecule: EAEELVVEEDVLEEEIEQLEERNYALRAEICNLSCQ-NH2 (linker 31-35 via mXylylene; not fully specified) [HingeW variant meta DBMBW, cyclised]
- IC50 (µM), CD [14]: 61.5 µM

Molecule: EAEELVVEEDVLEEEIEQLEERNYALRSEICSLQCQ-NH2 (linker 31-35 via mXylylene; not fully specified) [HingeW variant 0W, cyclised]
- IC50 (µM), CD [14]: 77.6 µM

Molecule: EAEELVVEEDVLEEEIEQLEERNYALRSEICSLQCQ-NH2 (not fully specified; cysteine pairing not given here) [HingeW variant 0W, linear]
- IC50 (µM), CD [14]: 86.7 µM

B4: FosW (peptide)
peptide: MASLDELQAEIEQLEERNYALRKEIEDLQKQLEKLGAPHHHHHH
modifications: not fully specified
notes: Recombinant, capped and C-terminally 6xHis-tagged; Lacks the acidic extension
- heterodimer Tm [15]: 54 ° C.
- IC50, CD antagonism of cJun/TRE DNA (peak at ~281 nM) [11]: 120 µM
